# Laboratory results: US20070160981A1 (priority 2005, published 2007)
# “And” between values parts separate entries of the source, which are not always exact repeats. Equal entries are not always repeated.
# What was measured:
# SARS-CoV PLP2 = SARS-CoV PLP2 (Severe acute respiratory syndrome coronavirus, UniProt P0C6U8)
# [1] = test system: T1, 16-mer Gly818-Ala819 site-containing oligopeptide NVFRLKGGAPIKGVTF
# T1 sequence: NVFRLKGGAPIKGVTF
# [2] = test system: T2, 8-mer oligopeptide LKGGAPIK
# T2 sequence: LKGGAPIK
# [3] = test system: T3, 12-mer oligopeptide ISLKGGKIVSTC containing the Gly2740-Lys2741 cleavage site
# T3 sequence: ISLKGGKIVSTC
# [4] = test system: T4, 18-mer Gly818-Ala819 site-containing oligopeptide NNVFRLKGGAPIKGVTFG
# T4 sequence: NNVFRLKGGAPIKGVTFG
# [5] = test system: Fluorogenic peptide substrate Abz-[…]-EDDNP
# [6] = test system: T5, 11-mer Gly818-Ala819 site-containing oligopeptide VFRLKGGAPIK
# T5 sequence: VFRLKGGAPIK
# [7] = test system: MHV 12-mer peptide substrate (P6-P1′ FSLKGGA)
# [8] = test system: T6, 9-mer oligopeptide FRLKGGAPI
# T6 sequence: FRLKGGAPI
# [9] = test system: T7, 10-mer oligopeptide FRLKGGAPIK (six P residues, four P′ residues)
# T7 sequence: FRLKGGAPIK
# [10] = test system: T8, 10-mer oligopeptide RLKGGAPIKG (five P residues, five P′ residues)
# T8 sequence: RLKGGAPIKG
# [11] = test system: 12-mer oligopeptide […] containing the Gly818-Ala819 cleavage site
# [12] = test system: BCoV 12-mer peptide substrate (P6-P1′ FSLKGGA)
# [13] = test system: T9, 14-mer Gly818-Ala819 site-containing oligopeptide VFRLKGGAPIKGVT
# T9 sequence: VFRLKGGAPIKGVT
# [14] = test system: T10, 12-mer oligopeptide RELNGGAVTRYV containing the Gly180-Ala181 cleavage site
# T10 sequence: RELNGGAVTRYV
substance,measurement,setting,value
RELNGGAVTRYV [Gly180-Ala181],Cleavage % 12 hours,SARS-CoV PLP2,5 ± 1%
same,percentage of the cleavage after 12 hours of digestion,SARS-CoV PLP2,5%
"SARS-CoV papain-like protease 2 (SARS-CoV PLP2), residues 1414-1858 of pp1a, N-terminal 6xHis tag","Cleavage %, 2 hours",[1],63%
same,"Cleavage %, 12 hours",[1],100%
same,"Cleavage %, 2 hours",[2],11.4%
same,"Cleavage %, 12 hours",[2],44.7%
same,"Cleavage %, 2 hours",[3],7%
same,"Cleavage %, 12 hours",[3],29%
same,"Cleavage %, 2 hours",[4],60.5%
same,"Cleavage %, 12 hours",[4],100%
same,Kcat/Km (µM^-1min^-1) at pH 5.25,[5],0.06 µM^-1min^-1
same,Kcat/Km (µM^-1min^-1) at pH 6.05,[5],0.17 µM^-1min^-1
same,Kcat/Km (µM^-1min^-1) at pH 6.82,[5],0.31 µM^-1min^-1
same,Kcat/Km (µM^-1min^-1) at pH 7.42,[5],0.27 µM^-1min^-1
same,Kcat/Km (µM^-1min^-1) at pH 8.01,[5],0.3 µM^-1min^-1
same,Kcat/Km (µM^-1min^-1) at pH 8.65,[5],0.3 µM^-1min^-1
same,Kcat/Km (µM^-1min^-1) at pH 9.20,[5],0.21 µM^-1min^-1
same,Kcat/Km (µM^-1min^-1) at pH 9.80,[5],0.08 µM^-1min^-1
same,Km (µM) at pH 5.25,[5],21.4 µM
same,Km (µM) at pH 6.05,[5],64 µM
same,Km (µM) at pH 6.82,[5],65.5 µM
same,Km (µM) at pH 7.42,[5],77.2 µM
same,Km (µM) at pH 8.01,[5],72 µM
same,Km (µM) at pH 8.65,[5],71.5 µM
same,Km (µM) at pH 9.20,[5],68 µM
same,Km (µM) at pH 9.80,[5],70.5 µM
same,kcat (min^-1) at pH 5.25,[5],1.37 min^-1
same,kcat (min^-1) at pH 6.05,[5],11.9 min^-1
same,kcat (min^-1) at pH 6.82,[5],20.6 min^-1
same,kcat (min^-1) at pH 7.42,[5],19.8 min^-1
same,kcat (min^-1) at pH 8.01,[5],21.9 min^-1
same,kcat (min^-1) at pH 8.65,[5],22 min^-1
same,kcat (min^-1) at pH 9.20,[5],14.1 min^-1
same,kcat (min^-1) at pH 9.80,[5],5.99 min^-1
same,pH-independent kcat value (constant C from the pH-Log kcat plot),[5],25.4±3.43 min^-1
same,pH-independent kcat/Km value (constant C from the pH-Log (kcat/Km) plot),[5],0.31±0.02 min^-1µM^-1
same,true Km value,[5],corrected to 82 µM
same,"Cleavage %, 2 hours",[6],52.9%
same,"Cleavage %, 12 hours",[6],100%
same,"Cleavage %, 2 hours",[7],21%
same,"Cleavage %, 12 hours",[7],80%
same,"Cleavage %, 2 hours",[8],36.2%
same,"Cleavage %, 12 hours",[8],85.1%
same,"Cleavage %, 2 hours",[9],49.9%
same,"Cleavage %, 12 hours",[9],100%
same,"Cleavage %, 2 hours",[10],14.8%
same,"Cleavage %, 12 hours",[10],56.4%
same,"Cleavage %, 2 h",[11],70.1%
same,"Cleavage %, 2 hours",[11],70% and 70.1%
same,"Cleavage %, 12 h",[11],100%
same,"Cleavage %, 12 hours",[11],100%
same,"Cleavage %, 2 hours",[12],27%
same,"Cleavage %, 12 hours",[12],85%
same,"Cleavage %, 2 hours",[13],67.6%
same,"Cleavage %, 12 hours",[13],100%
same,"Cleavage %, 12 hours",[14],5%
